Data on 2 molecules can be found in paper PMC5018360 (2017).

In this experiment the target is T1, MCL-1 (Mus musculus, UniProt P97287).
T1 chain: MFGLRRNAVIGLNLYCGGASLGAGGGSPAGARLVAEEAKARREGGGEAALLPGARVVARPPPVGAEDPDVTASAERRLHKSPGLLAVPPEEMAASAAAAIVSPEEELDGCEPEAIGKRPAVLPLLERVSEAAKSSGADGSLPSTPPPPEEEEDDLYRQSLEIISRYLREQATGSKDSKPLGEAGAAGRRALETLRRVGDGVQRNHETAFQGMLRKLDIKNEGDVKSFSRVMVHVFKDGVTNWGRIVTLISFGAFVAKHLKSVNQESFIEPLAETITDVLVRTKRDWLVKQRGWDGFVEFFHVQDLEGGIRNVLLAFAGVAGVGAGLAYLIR
Description: surface plasmon resonance. On the technique in general: In SPR one partner is held on a chip, and binding of the other changes the refractive index at the surface.

By Kd is commonly meant the equilibrium constant for the complex coming apart.

GRLAEVCTVLLRLGDELEQIRPSVY [BOK BH3 peptide BH3]: the Kd was determined as 3440 nM.
In the case of EDIIRNIARHLAQVGDSMDRSI [BID BH3 peptide] it was 134 nM.
